Experiments:
[1] = target: human atypical chemokine receptor 3 (ACKR3) (human) (UniProt P25106); assay: cell-based or functional assay
[2] = target: human atypical chemokine receptor 3 (ACKR3) (human) (UniProt P25106); assay: binding competition with CXCL12-AF647, flow cytometry

Sequence of human atypical chemokine receptor 3 (ACKR3) (human) (P25106 whole entry): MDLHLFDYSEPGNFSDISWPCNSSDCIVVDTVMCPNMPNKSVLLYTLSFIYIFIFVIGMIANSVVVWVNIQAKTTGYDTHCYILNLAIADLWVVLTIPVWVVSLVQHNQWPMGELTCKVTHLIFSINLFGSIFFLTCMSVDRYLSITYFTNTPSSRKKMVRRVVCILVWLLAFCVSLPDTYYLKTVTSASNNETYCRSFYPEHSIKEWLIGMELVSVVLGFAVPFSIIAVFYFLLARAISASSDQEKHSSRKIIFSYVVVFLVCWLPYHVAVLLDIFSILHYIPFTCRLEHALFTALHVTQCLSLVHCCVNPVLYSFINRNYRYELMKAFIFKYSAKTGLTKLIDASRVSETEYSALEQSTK

Row | EC50, β-arrestin recruitment (NanoBiT) [1] [nM] | IC50 [2] [nM] | Substance
1 | 2.2 | – | CXCL11 (C-X-C motif chemokine 11) (from UniProt O14625 22-94) (ligand)
2 | – | > 10000 | nociceptin 1-13 amide
